The target of this experiment is SARS-CoV-2 3CL^pro enzyme (Recombinant derived from Escherichia coli, ab277614, ABCAM; SEQ ID NO:2) (SARS-CoV-2) (UniProt P0DTC1).

As for “3CL^pro specific antibody (Rabbit-derived, NBP3-07062, Novus Biologicals; binding to SEQ ID NO:3)”, the time to maximal binding is 20 s.

The record behind these values is patent US20240361320A1.
